The text below walks through data of patent US20230265183A1 (MABWELL SHANGHAI BIOSCIENCE, published 2023).

Assay [1] addresses T1, human Nectin-4 (human, UniProt Q96NY8 32-510).
T1 construct: whole, on cells; Cell-surface target of the FACS, endocytosis and proliferation assays (CHO-huNectin4 S8 cells, BT474 cells); the assay field says which cells; also called huNectin4; PVRL4
T1 sequence (looked up): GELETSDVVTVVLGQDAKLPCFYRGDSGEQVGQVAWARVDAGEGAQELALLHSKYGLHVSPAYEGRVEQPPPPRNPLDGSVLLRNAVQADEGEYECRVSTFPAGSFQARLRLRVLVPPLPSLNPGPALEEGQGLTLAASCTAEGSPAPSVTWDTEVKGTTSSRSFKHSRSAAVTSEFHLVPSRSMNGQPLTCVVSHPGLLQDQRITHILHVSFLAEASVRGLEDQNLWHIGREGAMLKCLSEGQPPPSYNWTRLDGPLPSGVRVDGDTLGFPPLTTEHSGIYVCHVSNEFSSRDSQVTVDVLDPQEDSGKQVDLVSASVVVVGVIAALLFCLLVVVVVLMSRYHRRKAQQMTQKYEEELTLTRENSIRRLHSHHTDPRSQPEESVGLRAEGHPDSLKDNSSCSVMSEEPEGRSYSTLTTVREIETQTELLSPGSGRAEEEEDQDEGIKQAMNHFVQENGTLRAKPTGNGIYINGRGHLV
Briefly: FACS on BT474 cells. Here is the method:
(§1) The solutions of different concentrations were added to 384-well plates, 10 µl per well.
(§2) BT474 cells (breast cancer cells) expressing Nectin-4 on the cell surface were collected by centrifugation at 100 g at room temperature for 5 minutes, and then the cells were washed with PBS containing 0.5% BSA once and were centrifuged at 100 g at room temperature for 5 minutes. […] After incubation at 4° C. for 1 hour, fluorescently labeled goat anti-human IgG secondary antibody was added. After continued incubation at 4° C. for 1 hour, mean fluorescence readings of the cell populations were analyzed by a flow cytometer.
(§3) The experiment results of the binding of engineered humanized molecules of the present disclosure to BT474 cells by FACS assay are shown in panels 3B and 3C in FIG. 3 and Tables 6 and 7.

The target in assay [2] is T1, human Nectin-4. Briefly: FACS on BT474 cells. This is another data set of the same source.
Assay [3] has as its target T1, human Nectin-4. Briefly: FACS on BT474 cells. On the procedure: as §1, §2
This is another data set of the same source.

For assay [4], the target named is T1, human Nectin-4. Briefly: cell-based or functional assay.
Assay [5] deals with T2, human Nectin-2(C-6His), Novoprotein Cat# C440 (human, UniProt Q92692 32-360, limits assumed).
T2 sequence: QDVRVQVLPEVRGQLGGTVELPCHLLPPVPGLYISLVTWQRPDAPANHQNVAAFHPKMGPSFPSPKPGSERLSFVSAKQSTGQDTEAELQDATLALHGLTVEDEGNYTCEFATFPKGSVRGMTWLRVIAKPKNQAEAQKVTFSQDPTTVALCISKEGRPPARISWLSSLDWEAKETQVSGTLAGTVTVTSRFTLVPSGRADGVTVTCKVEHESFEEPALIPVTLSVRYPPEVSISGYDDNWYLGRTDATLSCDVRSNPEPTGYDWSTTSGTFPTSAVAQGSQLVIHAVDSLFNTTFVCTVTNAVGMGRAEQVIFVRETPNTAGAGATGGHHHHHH
Description: ELISA, plate coated with 1 µg/ml human Nectin-2(C-6His), absorbance at 450 nm. The text names only a goat anti-rabbit HRP secondary antibody. Here is the method: Plates were coated with 1 µg/ml of the antigens and incubated at 4° C. overnight; next, antibodies serially diluted were added into the plates. Finally, the HRP-labeled secondary antibody was added, and absorbance at 450 nm was detected.

For assay [6], the target named is T1, human Nectin-4. Description: FACS on BT474 cells. Here is the method:
as §1, §2, §3
The source holds these as a separate data set.

The target of assay [7] is T3, His-tagged human NECTIN4 (human, UniProt Q96NY8 32-349).
T3 construct: Antigen of the BIAcore assay; also called antigen; recombinant NECTIN4 protein; not shown: His tag
T3 sequence: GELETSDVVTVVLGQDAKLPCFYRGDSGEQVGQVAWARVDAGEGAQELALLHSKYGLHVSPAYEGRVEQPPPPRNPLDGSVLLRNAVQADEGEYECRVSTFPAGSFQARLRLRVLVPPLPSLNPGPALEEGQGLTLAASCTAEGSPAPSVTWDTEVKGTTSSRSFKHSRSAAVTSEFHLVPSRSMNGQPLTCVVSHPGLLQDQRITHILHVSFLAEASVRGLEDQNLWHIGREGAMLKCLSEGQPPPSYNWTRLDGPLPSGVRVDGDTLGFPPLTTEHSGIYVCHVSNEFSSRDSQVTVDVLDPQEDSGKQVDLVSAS
Description: ELISA, antibody without cyno serum, plate coated with 0.2 µg/ml antigen, HRP goat anti-human IgG, OD450. The sheet does not say which of the two plates of Example 13 is drawn. A general note: An ELISA detects its analyte on a solid surface through an enzyme-linked reagent.

In assay [8] the target is T1, human Nectin-4. Description: FACS on CHO-huNectin4 S8 cells.
Assay [9] has as its target T3, His-tagged human NECTIN4. Description: ELISA, antibody without cyno serum, plate coated with 0.2 µg/ml antigen, HRP goat anti-human IgG, OD450. The sheet does not say which of the two plates of Example 13 is drawn. The source holds these as a separate data set.

Broadly, the EC50 is the concentration that produces a half-maximal response. Low values mean greater potency, high ones weaker potency. As a reminder, the EC50 (read off the curve) is the concentration that produces a half-maximal response. A low value points to higher potency in that assay.

Where two headings read alike, the source gives them in different places.

B1: Enfortumab (antibody, human IgG1, kappa, V domains shown)
VH: EVQLVESGGGLVQPGGSLRLSCAASGFTFSSYNMNWVRQAPGKGLEWVSYISSSSSTIYYADSVKGRFTISRDNAKNSLSLQMNSLRDEDTAVYYCARAYYYGMDVWGQGTTVTVSS
VL: DIQMTQSPSSVSASVGDRVTITCRASQGISGWLAWYQQKPGKAPKFLIYAASTLQSGVPSRFSGSGSGTDFTLTISSLQPEDFATYYCQQANSFPPTFGGGTKVEIKR
notes: also called control antibody Enfortumab
As for B1, the 50% effective concentration (EC50) with human Nectin-4 [1] is 57.2 µg/mL; with human Nectin-4 [2], 29.6 µg/mL; in the assay with human Nectin-4 [3], 98.8 µg/mL; with human Nectin-4 [6], 0.0503 µg/mL; with human Nectin-4 [8], 0.513 µg/mL. Moreover, the “EC50 (ng/ml), inhibition of proliferation of BT474 cells” value in the assay with human Nectin-4 [4] amounted to 3.37 ng/mL. Further, the “Percentage of cell killing at the highest concentration” value in the assay with human Nectin-4 [4] is 43.3%. The binding result in assay [5] is listed as “no binding (tested: 10 µg/ml)”. Besides, the “EC50 (read off the curve)” value in the assay with His-tagged human NECTIN4 [7] was roughly 0.1 µg/mL.

B2: 42D20 hz10 (antibody, V domains shown)
VH: QVQLQESGPGLVKPSETLSLTCTVSGFSLIDYGVSWIRQPPGKGLEWIGVIWGDGKIYYNSVLKSRVTISKDNSKSQVSLKLSSVTAADTAVYYCAKQGGLLFYAMDYWGQGTLVTVSS
VL: DIVMTQSPDSLAVSLGERATINCKSSQSLLNSYSQKNYLAWYQQKPGQPPKLLIYFASTRESGVPDRFSGSGSGTDFTLTISSLQAEDVAVYYCQQHYNTPFTFGAGTKLELKR
notes: Humanized
For B2, the “EC50 (read off the curve)” value with His-tagged human NECTIN4 [9] was roughly 0.1 µg/mL. Further, the binding result in assay [5] is “no binding (tested: 10 µg/ml)”. For the same molecule, the figures for the concentration for a half-maximal effect (EC50) in the assay with human Nectin-4 [6] and with human Nectin-4 [8] were 0.0528 µg/mL and 0.801 µg/mL, respectively.
